Results taken from PMC6760453, “Conformational characterization of full-length X-chromosome-linked inhibitor of apoptosis protein (XIAP) through an integrated approach” (IUCrJ, 2019).

Biological target: the molecule itself
Experiment: EPR-DEER; Q-band (34 GHz) four-pulse DEER at 50 K on MTSL-labelled XIAP; dimer concentration 15 uM; 20 mM Tris pH 7.4

B1: XIAP C202R1 (XIAP C12A, C213G, C351S labelled with MTSL nitroxide on Cys202) (natural protein, human, UniProt P98170 1-497, looked up)
chain: MTFNSFEGSKTAVPADINKEEEFVEEFNRLKTFANFPSGSPVSASTLARAGFLYTGEGDTVRCFSCHAAVDRWQYGDSAVGRHRKVSPNCRFINGFYLENSATQSTNSGIQNGQYKVENYLGSRDHFALDRPSETHADYLLRTGQVVDISDTIYPRNPAMYSEEARLKSFQNWPDYAHLTPRELASAGLYYTGIGDQVQCFCCGGKLKNWEPGDRAWSEHRRHFPNCFFVLGRNLNIRSESDAVSSDRNFPNSTNLPRNPSMADYEARIFTFGTWIYSVNKEQLARAGFYALGEGDKVKCFHCGGGLTDWKPSEDPWEQHAKWYPGCKYLLEQKGQEYINNIHLTHSLEESLVRTTEKTPSLTRRIDDTIFQNPMVQEAIRMGFSFKDIKKIMEEKIQISGSNYKSLEVLVADLVNAQKDSMQDESSQTSLQKEISTEEQLRRLQEEKLCKICMDRNIAIVFVPCGHLVTCKQCAEAVDKCPMCYTVITFKQKIFMS
modifications: MTSL nitroxide spin label on Cys202
notes: Mutations were introduced into the WT XIAP gene; also called XIAP C202-MTSL
- binding result: binds
